The results in this text go back to patent US20180044415A1 (AbbVie / Abbott, published 2018).

This assay concerns the target T1, human DLL3 (immobilized human DLL3 or h293-hDLL3 cells) (human, UniProt Q9NYJ7 27-492, limits assumed).
T1 construct: the sentence says 'immobilized human DLL3 or h293-hDLL3 cells'
T1 sequence: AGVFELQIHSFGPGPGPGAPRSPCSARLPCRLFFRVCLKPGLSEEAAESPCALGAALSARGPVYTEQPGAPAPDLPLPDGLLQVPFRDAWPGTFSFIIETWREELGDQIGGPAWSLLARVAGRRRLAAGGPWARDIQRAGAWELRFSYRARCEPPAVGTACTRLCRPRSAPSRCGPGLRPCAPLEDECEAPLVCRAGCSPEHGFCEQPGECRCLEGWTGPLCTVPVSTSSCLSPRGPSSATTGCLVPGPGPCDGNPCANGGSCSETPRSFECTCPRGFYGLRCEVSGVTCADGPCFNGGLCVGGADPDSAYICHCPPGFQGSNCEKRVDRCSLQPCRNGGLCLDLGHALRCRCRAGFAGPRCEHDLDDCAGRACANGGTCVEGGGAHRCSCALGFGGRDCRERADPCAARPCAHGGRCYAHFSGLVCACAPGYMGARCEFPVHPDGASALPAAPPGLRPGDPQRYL
Description: hybridoma screening on immobilized human DLL3 or on h293-hDLL3 cells.

B1: SC16.30 (antibody, V domains shown)
VH: QVTLKESGPGILQPSQTLSLTCSFSGFSLSTSGMGVGWIRQPSGKGLEWLAHIWWDDVKRYKPALKSRLTVSKDTSSNQVFLKIATVDAADTGTYYCARIVDGHPPFAYWGQGTLVTVSA
VL: QIVLTQSPTIMSASLGERVTMTCTASSSVTSSYLHWYQQKPGSSPKLWIYSTSNLASGVPARFSGSGSGTSYSLTISSMEAEDAATYYCHQFHRSPFTFGSGTKLEIK
notes: murine mAb; variable regions only
On to B1, for which the binding result was “binds”.

B2: SC16.38 (antibody, V domains shown)
VH: EVQLQQSGAELVKPGASVKLSCTVSGFNIKDTYIHWVKQRPEQGLEWIGRIDPANGNTKYDPKFQGKATITADTSSNTAYLQLSSLTSEDTAVYYCARPTGYFEYWGQGTTLTVSS
VL: QIVLTQSPAIMSASPGEKVTMTCSASSSINYMHWYQQKPGTSPKRWIYDTSKLASGVPARFSGSGSGTSYSLTISSMEAEDAATYYCHQRSTWTFGGGTKLEIK
notes: as for B1
In the case of B2, the binding result is recorded as “binds”.

B3: SC16.58 (antibody, V domains shown)
VH: DVQLVESGGGLVQPGGSRKLSCAASGFTFSSFGMHWVRQAPEKGLEWVAYISSGSSNIYYADTVKGRFTISRDNPKNTLFLQMTSLRSEDTAMYYCARGYYGNYDAMDYWGQGTSVTVSS
VL: DIQMTQSPASLSSSVGETVTITCRASENIYSYLAWYQQKQGKSPQLLVYNAKTLAEGVPSRFSGSGSGTQFSLKINSLQPEDFGTYYCQHHYDSPLTFGAGTKLELR
notes: as for B1
Consider B3, for which the binding result is reported as “binds”.

B4: SC16.22 (antibody, V domains shown)
VH: QVQLQQPGAELVKPGASVKLSCKASGYTFTTYWMHWVKQRPGQGLEWIGEIDPSDSYTYYNQKFKGKATLTVDKSSSTAYMQLSSLTSEDSAVYYCARGDYGNPYAMDYWGQGSSVTVSS
VL: DIQMTQTTSSLSASLGDRVTISCRASQDIKNYLNWYQQKPDGTVKPLIYYTSRVHSGVPSRFSGSGSGTDYSLTISNLEQEDIATYFCQQGYTLPFTFGSGTKLEIK
notes: as for B1
Turning to B4, the binding result is given as “binds”.

B5: SC16.35 (antibody, V domains shown)
VH: DVQLQESGPGLVKPSQSLSLTCTVTGYSITSDYAWNWIRQFPGNKLEWMGYISYSGSTSYNPSLKSRISITRDTSKNQFFLQLNSVTTEDTATYYCARFYYGSSYAMDYWGQGTSVTVSS
VL: DIQMTQTTSSLSASLGDRVTISCRASQDISNYLNWYQQKPDGTVKLLIYYTSRLHSGVPSRFSGSGSGTDYSLTISNLEQEDIATYFCQQGNTLPYTFGGGTKLEIK
notes: as for B1
In the case of B5, the binding result is “binds”.

B6: SC16.52 (antibody, V domains shown)
VH: QVQLKESGPGLVAPSQSLSITCAVSGFSLTSFAIHWFRKPPGKGLEWLGVIWTGGTTNYNSALMSRLSISKDNSKSQVFLKMNSLQTDDTAMYYCARDDYDNNYAMDYWGQGTSVTVSS
VL: DIQMIQSPSSMFASLGDRVSLSCRASQGIRGTLDWYQQKPNGTIKLLIYSTSNLNSGVPSRFSGSGSGSDYSLTISSLESEDFADYYCLQRNAYPLTFGAGTKLELK
notes: as for B1
On to B6, for which the binding result is listed as “binds”.

B7: SC16.21 (antibody, V domains shown)
VH: QVQLQQSGPELVKPGASVKISCKASGYAFSSSWMNWVKQRPGKGLEWIGRIYPGDGDTNYNGKFKGKATLTADKSSSTAYMQLSSLTSEDSAVYFCAMGIYNYDGSRYYSMDYWGQGTSVTVSS
VL: DIVMTQSPSSLAMSVGQKVTMSCKSSQSLLNSSNQKNYLAWYQQEPGQSPKLLVSFASTRESGVPDRFTGSGSGTDFTLTISGVQAEDLAVYYCQQHYSIPLTFGAGTKLELK
notes: as for B1
Consider B7, for which the binding result is “binds”.

B8: SC16.61 (antibody, V domains shown)
VH: EVLLQRSGPDLVKPGASVTIPCKASGYTFTDYNMDWVKQSHGKSLEWIGNINTYNGGTIYNQKFKGKATLTVDKPSSTAYMELRSLTSEDTAVYYCARRLRYGGHYFDYWGQGTALTVSS
VL: DIVMTQSTSSLAMSVGQKVTMSCKSSQSLLNSSNQKNYLAWYQQEPGQSPKLLVSFASTRESGVPDRFTGSGSGTDFTLTISGVQAEDLAVYYCQQHYSIPLTFGAGTKLELK
notes: as for B1
As to B8, the binding result is listed as “binds”.

B9: SC16.63 (antibody, V domains shown)
VH: QVQLQQSGTELLRPGASVKISCKATGYTFSSYWMEWVKQRPGHGLEWIGEILPGSGTTQYNEKFKGKATFTADTSSNTAYMHLSSLTSEDSAVYYCARGTNSLWGQGTLVTVSA
VL: QIVLTQSPAIMSASPGEKVTMTCSASSSVSYMYWYQQKSGTSPKRWIYDTSKLASGVPARFSGSGSGTSYSLTISSMEAEDAATYYCQQWSSNPYTFGGGTKLEIK
notes: as for B1
For B9, the binding result is listed as “binds”.

B10: SC16.19 (antibody, V domains shown)
VH: EVQLQQSGAELVRPGASVKLSCTASGFNIKDSLLHWVKQRPEKGLEWIGWIDPEDGETKYAPNFQDKATITTDSSSNTAYLQLISLTSVDTAIYYCAYGNYVRHFDYWGQGTTLTVSS
VL: DIQMTQSPSSLSASLGGKVTFTCKASQDIHKYVAWYQHKPGKGPRLLIHYTSTLQPGISSRFSGSGSGRDYSFSISNLEPEDIATYYCLQYNNLYTFGGGTKLEIK
notes: as for B1
For B10, the binding result is listed as “binds”.

B11: SC16.20 (antibody, V domains shown)
VH: QVQLQQSGTELVRPGTSVRVSCKASGYAFGNHLIEWVKQRPGQGLEWIGVINPGTGGTHYNEKFKDKARLTADKSSNTAYMHLNSLTSDDSAVYFCARSPYDYHEGAMDYWGQGTSVTVSS
VL: EIQMTQSPSSMSASLGDRITITCQATQDIVKNLNWYQQKPGKPPSFLIYYATELAEGVPSRFSGSGSGSDYSLTIRNLESEDFADHYCLQFYEFPFTFGAGTKLELK
notes: as for B1
Take B11: the binding result is reported as “binds”.

B12: SC16.45 (antibody, V domains shown)
VH: QVQLQQSGADLVRPGTSVKVSCKASGYSFTNYLIEWVKQRPGQGLEWIGVINPGSGGTHYNEKFKDKAVLTADKSSTTAHMQLSSLTSDDSAVYFCARSPYDYNDGAMDYWGQGTSVTVSS
VL: EIQMTQSPSSMSASLGDRITITCQATQDIVKNLNWYQQKPGKPPSFLIYYATELAEGVPARFSGSGSGSDYSLTISNLESEDFADYHCLQFYEFPFTFGAGTKLELK
notes: as for B1
As for B12, the binding result is on record as “binds”.

B13: SC16.57 (antibody, V domains shown)
VH: EVKLVESGGDLVKPGGSLKLSCAASGFAFSSYDMSWVRQTPEKRLEWVATISSGGSYTYYPDSVKGRFTISRDNVRDTLYLQMSSLRSEDTALYYCARQAIGTYFDYWGQGTTLTVSS
VL: DIVMTQSHKFMSISVGDRVSITCKASQDVSIFVAWYQQKPGQSPKLLIYSASYRYTGVPDRFTGSGSGTDFIFTISSVQAEDLAVYYCQQHYGTPFTFGSGTKLKIR
notes: as for B1
B13: the binding result is reported as “binds”.

B14: SC16.29 (antibody, V domains shown)
VH: QVQLQQSGAELARPGASVKLSCKASGYTFTDQYINWVKQRTGQGLEWIGEIYPGRGNTYYNEKFKGKATLTADKSSSTAYMQLSSLTSEDSAVYFCAREDGGYDDAWFAYWGQGTLVTVSA
VL: QIVLTQSPAIMSASPGEKVTITCSASSSVSYMHWFQQKPGTSPKLWIYTTSNLASGVPARFSGSGSGTSYSLTVSRMEAEDAATYYCQQRSLYPYTFGGGTKVEIK
notes: as for B1
Take B14: the binding result is “binds”.

B15: SC16.47 (antibody, V domains shown)
VH: EVQLQQSGPELVKPGASVKISCKASGYSFSRFYMHWVKQSPENSLEWIGEINPSTGGTSYNQKFKGKATLTVDKSSSTAYMQLKSLTSEESAVYYCTRGYGSNCYFDVWGAGTTVTVST
VL: DVVLTQSPLSLPVNIGDQASISCKSTKSLLNSDGFTYLDWYLQRPGQSPQFLIYLVSNRFSGVPDRFSGSGSGTDFTLKISRVEAEDLGVYYCFQSNYLPLTFGAGTKLELR
notes: as for B1
Take B15: the binding result was “binds”.

B16: SC16.42 (antibody, V domains shown)
VH: QIQLVQSGPELKKPGETVKISCKASGYTFTTAGMQWVQKMPGKGFKWIGWINTHSGEPKYADDFKGRFAFSLETSASTAYLQISNLKDEDTATFFCAPLWSDSSFAYWGQGTLVTVSA
VL: DVLMTQSPLSLSVSLGDQASISCRSSQNIVHSDRYTYLEWYLQKPGQSPKLLIYGVSNRFSGVPDRFSGSGSGTDFTLKISRVEAEDMGVYYCFQGTHVPYTFGGGTKLEIK
notes: as for B1
As for B16, the binding result is “binds”.

B17: SC16.49 (antibody, V domains shown)
VH: QVQLQQSGPELVKPGTLVKISCKASGYTFTSYDINWVKQRPGQGLEWIGWIYPGDGNTKYSEKFKGKATLTADKSSSTAYMQLTSLTSENSAVYFCARDYDYPFAYWGQGTLVTVSA
VL: DIKMTQSPSSMYASLGERVTITCKASQDINSYLSWFQQKPGKSPKTLIYRANRLVDGVPSRFSGSGSGQDYSLTITSLEYEDMGIYYCLQYDEFPLTFGAGTKLELK
notes: as for B1
On to B17, for which the binding result is “binds”.

B18: SC16.62 (antibody, V domains shown)
VH: EVMLVESGGDLVKPGGSLKLSCAASGFTFSSYAMSWVRQTPEKRLEWVAYISGGGDHIYYPDSVRGRFTISRDNAKDTLYLQMSSLRSEDTALYDCARVRDWYFDVWGAGTTVTVSS
VL: DIKMTQSPSSMYASLGERVTITCKASQDINSFLSWFQRKPGKSPKTLIYRANRLVDGVPSRFTGSGSGQEFSLTISSLEYEDLGIYYCLQYDEFPYTFGGGTKLEIK
notes: as for B1
Turning to B18, the binding result was “binds”.

B19: SC16.55 (antibody, V domains shown)
VH: EVQLVESGGGLVQPKGSLKLSCAVSAFTFTTYAMNWVRQAPGKGLEWVARIRNKSNNYATYYADSVKDRFTISRDDSQSMLYLQMNNLKIEDTAMYYCVFYYDYVYWGQGTLVTVSA
VL: DIKMTQSPSSMYASLGERVTITCKASQDINSYLNWFQQKPGKSPKTLIYRANRLVDGVPSRFSGSGSGQDYSLTISSLEYEDMGIYYCLQYDEFPYTFGGGTKLEIK
notes: as for B1
In the case of B19, the binding result is reported as “binds”.
